According to publication PMC5031503:
Changes are numbered by the printed parent chain. Numbers in names are those of the source. Blank lines part the entries; values can stand above or below the binder they belong to.

Molecular target: Myc-tagged Scar/WAVE complex (Myc-Pir121, Myc-Nap1, Myc-Abi1d, Myc-WAVE2), Q96F07;Q9Y2A7;Q9Y6W5
Assay: co-immunoprecipitation, quantified western blot band intensities
Conditions: chain shown with the change; HEK293FT cells; n=4; Scar/WAVE2 normalized against the immunoprecipitated Lpd; parent: est. 100; read off a plot

Sequence of Myc-tagged Scar/WAVE complex (Myc-Pir121, Myc-Nap1, Myc-Abi1d, Myc-WAVE2), Q96F07;Q9Y2A7;Q9Y6W5 (chain, as listed by the source, chain 1 of 3): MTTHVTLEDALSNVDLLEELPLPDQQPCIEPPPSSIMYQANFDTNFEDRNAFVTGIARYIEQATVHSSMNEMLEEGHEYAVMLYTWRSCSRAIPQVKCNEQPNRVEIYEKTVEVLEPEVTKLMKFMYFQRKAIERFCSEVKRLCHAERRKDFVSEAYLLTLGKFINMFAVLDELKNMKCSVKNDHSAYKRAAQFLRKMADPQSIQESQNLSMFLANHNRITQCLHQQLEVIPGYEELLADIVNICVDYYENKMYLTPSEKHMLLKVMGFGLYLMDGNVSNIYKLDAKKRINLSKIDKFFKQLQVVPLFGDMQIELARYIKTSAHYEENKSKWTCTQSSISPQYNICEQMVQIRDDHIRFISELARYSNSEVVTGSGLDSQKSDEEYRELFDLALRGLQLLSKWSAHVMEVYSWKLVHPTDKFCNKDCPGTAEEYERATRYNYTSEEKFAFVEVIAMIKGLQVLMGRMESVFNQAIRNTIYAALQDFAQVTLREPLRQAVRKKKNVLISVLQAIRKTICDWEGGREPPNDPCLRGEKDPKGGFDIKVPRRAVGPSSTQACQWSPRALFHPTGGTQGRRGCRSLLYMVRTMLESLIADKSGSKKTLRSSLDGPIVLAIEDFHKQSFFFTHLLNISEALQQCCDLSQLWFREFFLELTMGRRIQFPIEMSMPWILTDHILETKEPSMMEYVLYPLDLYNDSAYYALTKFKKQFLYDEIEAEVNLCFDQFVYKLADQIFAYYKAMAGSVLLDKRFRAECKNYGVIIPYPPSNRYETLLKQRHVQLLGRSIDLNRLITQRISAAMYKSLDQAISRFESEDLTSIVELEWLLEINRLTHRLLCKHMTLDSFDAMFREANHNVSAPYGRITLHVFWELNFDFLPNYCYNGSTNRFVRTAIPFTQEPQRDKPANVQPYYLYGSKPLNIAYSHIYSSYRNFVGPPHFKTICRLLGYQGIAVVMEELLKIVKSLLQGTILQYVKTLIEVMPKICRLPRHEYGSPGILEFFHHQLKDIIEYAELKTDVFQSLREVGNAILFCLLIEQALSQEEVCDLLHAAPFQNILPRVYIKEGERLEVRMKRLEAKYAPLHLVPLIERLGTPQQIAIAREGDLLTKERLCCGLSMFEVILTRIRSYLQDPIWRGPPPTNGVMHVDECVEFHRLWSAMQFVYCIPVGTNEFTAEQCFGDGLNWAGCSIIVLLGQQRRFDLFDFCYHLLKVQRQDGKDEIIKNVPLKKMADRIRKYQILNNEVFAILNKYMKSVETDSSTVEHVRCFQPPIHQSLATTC
Sequence of Myc-tagged Scar/WAVE complex (Myc-Pir121, Myc-Nap1, Myc-Abi1d, Myc-WAVE2), Q96F07;Q9Y2A7;Q9Y6W5 (chain, as listed by the source, chain 2 of 3): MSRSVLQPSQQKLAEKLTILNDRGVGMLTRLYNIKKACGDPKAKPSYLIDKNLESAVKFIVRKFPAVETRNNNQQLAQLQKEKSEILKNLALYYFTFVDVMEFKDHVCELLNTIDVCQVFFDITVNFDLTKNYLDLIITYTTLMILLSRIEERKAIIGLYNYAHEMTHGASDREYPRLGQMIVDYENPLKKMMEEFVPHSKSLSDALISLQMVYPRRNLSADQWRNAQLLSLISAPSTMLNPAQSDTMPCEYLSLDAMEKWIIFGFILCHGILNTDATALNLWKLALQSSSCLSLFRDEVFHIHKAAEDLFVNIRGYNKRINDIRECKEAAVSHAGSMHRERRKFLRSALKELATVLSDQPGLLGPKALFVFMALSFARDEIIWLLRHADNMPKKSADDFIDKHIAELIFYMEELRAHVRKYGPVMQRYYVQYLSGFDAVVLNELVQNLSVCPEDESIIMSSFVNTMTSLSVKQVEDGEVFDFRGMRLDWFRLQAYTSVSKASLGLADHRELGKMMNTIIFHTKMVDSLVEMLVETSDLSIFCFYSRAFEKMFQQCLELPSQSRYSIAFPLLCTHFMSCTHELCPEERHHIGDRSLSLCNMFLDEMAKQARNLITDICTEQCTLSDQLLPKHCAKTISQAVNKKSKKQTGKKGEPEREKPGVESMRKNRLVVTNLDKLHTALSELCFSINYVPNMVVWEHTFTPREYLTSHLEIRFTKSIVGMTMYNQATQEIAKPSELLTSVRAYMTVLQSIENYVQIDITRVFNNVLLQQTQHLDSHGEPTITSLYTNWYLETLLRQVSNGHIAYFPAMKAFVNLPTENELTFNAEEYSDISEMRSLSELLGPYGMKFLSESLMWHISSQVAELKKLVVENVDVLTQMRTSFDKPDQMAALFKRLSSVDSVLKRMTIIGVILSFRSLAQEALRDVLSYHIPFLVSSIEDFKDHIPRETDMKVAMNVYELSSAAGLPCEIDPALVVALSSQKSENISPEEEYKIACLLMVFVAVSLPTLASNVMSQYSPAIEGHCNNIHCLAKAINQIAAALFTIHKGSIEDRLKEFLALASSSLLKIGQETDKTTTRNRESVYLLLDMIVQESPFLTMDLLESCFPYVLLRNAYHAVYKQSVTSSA
Sequence of Myc-tagged Scar/WAVE complex (Myc-Pir121, Myc-Nap1, Myc-Abi1d, Myc-WAVE2), Q96F07;Q9Y2A7;Q9Y6W5 (chain, as listed by the source, chain 3 of 3): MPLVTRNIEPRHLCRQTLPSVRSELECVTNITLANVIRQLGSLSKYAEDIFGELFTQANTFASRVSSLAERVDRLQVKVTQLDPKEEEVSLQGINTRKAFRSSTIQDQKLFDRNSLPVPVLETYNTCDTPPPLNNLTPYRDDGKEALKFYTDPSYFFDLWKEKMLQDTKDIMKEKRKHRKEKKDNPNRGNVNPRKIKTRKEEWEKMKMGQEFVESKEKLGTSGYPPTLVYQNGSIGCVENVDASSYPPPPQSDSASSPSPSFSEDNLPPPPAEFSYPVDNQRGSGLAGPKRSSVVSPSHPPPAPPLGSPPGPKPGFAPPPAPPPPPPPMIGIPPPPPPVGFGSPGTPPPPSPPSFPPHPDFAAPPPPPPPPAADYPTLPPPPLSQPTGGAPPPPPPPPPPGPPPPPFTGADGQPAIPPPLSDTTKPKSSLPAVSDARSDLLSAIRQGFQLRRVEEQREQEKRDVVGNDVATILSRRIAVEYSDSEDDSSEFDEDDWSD

percent of parent (% co-IP Lpd-WAVE2): 39
B1: GFP-Lpd (Lamellipodin, wild type), Q70E73 Y366F; Y426F; Y456F; Y466F; Y481F; Y510F (protein)
chain: MEQLSDEEIDHGAEEDSDKEDQDLDKMFGAWLGELDKLTQSLDSDKPMEPVKRSPLRQETNMANFSYRFSIYNLNEALNQGETVDLDALMADLCSIEQELSSIGSGNSKRQITETKATQKLPVSRHTLKHGTLKGLSSSSNRIAKPSHASYSLDDVTAQLEQASLSMDEAAQQSVLEDTKPLVTNQHRRTASAGTVSDAEVHSISNSSHSSITSAASSMDSLDIDKVTRPQELDLTHQGQPITEEEQAAKLKAEKIRVALEKIKEAQVKKLVIRVHMSDDSSKTMMVDERQTVRQVLDNLMDKSHCGYSLDWSLVETVSELQMERIFEDHENLVENLLNWTRDSQNKLIFMERIEKYALFKNPQNFLLGKKETAEMADRNKEVLLEECFCGSSVTVPEIEGVLWLKDDGKKSWKKRYFLLRASGIFYVPKGKAKVSRDLVCFLQLDHVNVYYGQDFRNKYKAPTDFCLVLKHPQIQKKSQFIKYLCCDDVRTLHQWVNGIRIAKYGKQLFMNYQEALKRTESAYDWTSLSSSSIKSGSSSSSIPESQSNHSNQSDSGVSDTQPAGHVRSQSIVSSVFSEAWKRGTQLEESSKARMESMNRPYTSLVPPLSPQPKIVTPYTASQPSPPLPPPPPPPPPPPPPPPPPPPPLPSQSAPSAGSAAPMFVKYSTITRLQNASQHSGALFKPPTPPVMQSQSVKPQILVPPNGVVPPPPPPPPPPTPGSAMAQLKPAPCAPSLPQFSAPPPPLKIHQVQHITQVAPPTPPPPPPIPAPLPPQAPPKPLVTIPAPTSTKTVAPVVTQAAPPTPTPPVPPAKKQPAFPASYIPPSPPTPPVPVPPPTLPKQQSFCAKPPPSPLSPVPSVVKQIASQFPPPPTPPAMESQPLKPVPANVAPQSPPAVKAKPKWQPSSIPVPSPDFPPPPPESSLVFPPPPPSPVPAPPPPPPPTASPTPDKSGSPGKKTSKTSSPGGKKPPPTPQRNSSIKSSSGAEHPEPKRPSVDSLVSKFTPPAESGSPSKETLPPPAAPPKPGKLNLSGVNLPGVLQQGCVSAKAPVLSGRGKDSVVEFPSPPSDSDFPPPPPETELPLPPIEIPAVFSGNTSPKVAVVNPQPQQWSKMSVKKAPPPTRPKRNDSTRLTQAEISEQPTMATVVPQVPTSPKSSLSVQPGFLADLNRTLQRKSITRHGSLSSRMSRAEPTATMDDMALPPPPPELLSDQQKAGYGGSHISGYATLRRGPPPAPPKRDQNTKLSRDW

percent of parent (% co-IP Lpd-WAVE2): 41
B2: GFP-Lpd (Lamellipodin, wild type), Q70E73 Y426F; Y456F; Y513F; Y1226F (protein)
chain: B1 chain with F366Y, F466Y, F481Y, F510Y, Y513F, Y1226F

percent of parent (% co-IP Lpd-WAVE2): 31
B3: GFP-Lpd (Lamellipodin, wild type), Q70E73 Y366F; Y426F; Y456F; Y466F; Y481F; Y510F; Y513F; Y1226F (protein)
chain: B1 chain with Y513F, Y1226F
